According to PMC6547726, “Advanced FRET normalization allows quantitative analysis of protein interactions including stoichiometries and relative affinities in living cells” (Scientific Reports, 2019):
One block for each molecule: values may come before it.

What was measured:
YFP-p65 = YFP-p65 (UniProt Q04206); experiment: FRET or BRET; 3-filter FRET by flow cytometry (CYTOFLEX S) of living transfected HeLa cells, five plasmid ratios; DFRET of single cells fitted to a law-of-mass-action model (Ka^app apparent, z, FRETmax)
YFP-tagged IKKα = molecular target: T1, YFP-tagged IKKα (UniProt O15111 1-745); experiment: as above; details: partners not purified
T1 construct: IKKα, IKK subunit α of the NF-kappaB pathway; FRET donor; also called IKK subunit α; source: HeLa cells (clone ACC 57), transfected, in living cells
T1 sequence (looked up): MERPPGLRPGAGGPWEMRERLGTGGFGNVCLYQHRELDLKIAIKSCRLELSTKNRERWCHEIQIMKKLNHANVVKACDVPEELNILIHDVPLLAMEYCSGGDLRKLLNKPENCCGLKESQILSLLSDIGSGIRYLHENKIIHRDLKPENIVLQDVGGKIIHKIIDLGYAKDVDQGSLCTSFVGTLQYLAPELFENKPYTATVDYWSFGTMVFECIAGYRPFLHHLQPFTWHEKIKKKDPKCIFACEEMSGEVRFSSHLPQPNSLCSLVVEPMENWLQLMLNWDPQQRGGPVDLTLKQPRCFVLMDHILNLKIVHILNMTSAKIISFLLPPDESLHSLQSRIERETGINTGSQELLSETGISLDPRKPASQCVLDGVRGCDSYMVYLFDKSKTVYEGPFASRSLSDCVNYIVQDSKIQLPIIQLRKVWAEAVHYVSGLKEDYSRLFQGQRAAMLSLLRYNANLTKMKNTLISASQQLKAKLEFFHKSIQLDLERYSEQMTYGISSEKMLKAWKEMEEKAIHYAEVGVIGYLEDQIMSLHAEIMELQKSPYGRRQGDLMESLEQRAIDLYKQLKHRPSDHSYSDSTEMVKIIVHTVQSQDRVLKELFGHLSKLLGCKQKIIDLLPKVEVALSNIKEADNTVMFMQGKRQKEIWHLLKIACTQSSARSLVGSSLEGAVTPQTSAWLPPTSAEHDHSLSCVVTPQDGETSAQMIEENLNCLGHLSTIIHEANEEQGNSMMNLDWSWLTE

Sequence of YFP-p65 (Q04206 whole entry): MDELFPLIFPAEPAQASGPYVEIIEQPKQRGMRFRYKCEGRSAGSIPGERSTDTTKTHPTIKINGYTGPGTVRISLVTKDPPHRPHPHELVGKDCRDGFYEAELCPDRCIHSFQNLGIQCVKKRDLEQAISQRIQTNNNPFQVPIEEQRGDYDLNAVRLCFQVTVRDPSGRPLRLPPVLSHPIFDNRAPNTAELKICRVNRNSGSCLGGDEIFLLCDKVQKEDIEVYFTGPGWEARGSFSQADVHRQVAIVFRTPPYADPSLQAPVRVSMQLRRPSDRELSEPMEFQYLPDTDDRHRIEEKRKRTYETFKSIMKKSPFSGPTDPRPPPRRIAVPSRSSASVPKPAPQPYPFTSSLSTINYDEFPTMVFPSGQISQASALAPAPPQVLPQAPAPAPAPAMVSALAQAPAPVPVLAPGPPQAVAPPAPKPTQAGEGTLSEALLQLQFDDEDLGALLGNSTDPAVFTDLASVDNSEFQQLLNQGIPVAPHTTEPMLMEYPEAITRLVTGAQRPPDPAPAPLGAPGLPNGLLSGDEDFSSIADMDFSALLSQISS

- stoichiometry N (acceptor (IκB) per donor (p65)) (YFP-p65): 0.5
Molecule: IκB-mCherry (from UniProt P25963 1-317) (natural protein)

- stoichiometry N (YFP-tagged IKKα): ~1 acceptor (IKKβ) per donor (IKKα)
B1: mCherry-tagged IKKβ (natural protein, UniProt O14920 1-756, looked up)
chain: MSWSPSLTTQTCGAWEMKERLGTGGFGNVIRWHNQETGEQIAIKQCRQELSPRNRERWCLEIQIMRRLTHPNVVAARDVPEGMQNLAPNDLPLLAMEYCQGGDLRKYLNQFENCCGLREGAILTLLSDIASALRYLHENRIIHRDLKPENIVLQQGEQRLIHKIIDLGYAKELDQGSLCTSFVGTLQYLAPELLEQQKYTVTVDYWSFGTLAFECITGFRPFLPNWQPVQWHSKVRQKSEVDIVVSEDLNGTVKFSSSLPYPNNLNSVLAERLEKWLQLMLMWHPRQRGTDPTYGPNGCFKALDDILNLKLVHILNMVTGTIHTYPVTEDESLQSLKARIQQDTGIPEEDQELLQEAGLALIPDKPATQCISDGKLNEGHTLDMDLVFLFDNSKITYETQISPRPQPESVSCILQEPKRNLAFFQLRKVWGQVWHSIQTLKEDCNRLQQGQRAAMMNLLRNNSCLSKMKNSMASMSQQLKAKLDFFKTSIQIDLEKYSEQTEFGITSDKLLLAWREMEQAVELCGRENEVKLLVERMMALQTDIVDLQRSPMGRKQGGTLDDLEEQARELYRRLREKPRDQRTEGDSQEMVRLLLQAIQSFEKKVRVIYTQLSKTVVCKQKALELLPKVEEVVSLMNEDEKTVVRLQEKRQKELWNLLKIACSKVRGPVSGSPDSMNASRLSQPGQLMSQPSTASNSLPEPAKKSEELVAEAHNLCTLLENAIQDTVREQDQSFTALDWSWLQTEEEEHSCLEQAS
notes: IKKβ, IKK subunit β of the NF-kappaB pathway; FRET acceptor; also called IKK subunit β; source: HeLa cells (clone ACC 57), transfected, in living cells
